The results in this text go back to patent publication EP4671282A1.

Assay [1] has as its target human BAFF (ACROBiosystems, BAF-H52D4) (human) (UniProt Q9Y275). The assay is described as follows: ELISA, test sample coated, His-tagged BAFF in solution.
In assay [2] the target is human IL-36R full-length protein stably expressed on CHO-K1 cells (human) (UniProt Q9HB29). Nature of the assay: FACS, CHO-K1 cells overexpressing human IL-36R. Background: In flow cytometry, cells or beads pass a laser one at a time.
The target is the same in assay [3]. Nature of the assay: FACS, CHO-K1 cells overexpressing human IL-36R. The source holds these as a separate data set.

Where two headings read alike, the source gives them in different places.

Chain of human IL-36R full-length protein stably expressed on CHO-K1 cells (human) (Q9HB29 20-575 limits assumed): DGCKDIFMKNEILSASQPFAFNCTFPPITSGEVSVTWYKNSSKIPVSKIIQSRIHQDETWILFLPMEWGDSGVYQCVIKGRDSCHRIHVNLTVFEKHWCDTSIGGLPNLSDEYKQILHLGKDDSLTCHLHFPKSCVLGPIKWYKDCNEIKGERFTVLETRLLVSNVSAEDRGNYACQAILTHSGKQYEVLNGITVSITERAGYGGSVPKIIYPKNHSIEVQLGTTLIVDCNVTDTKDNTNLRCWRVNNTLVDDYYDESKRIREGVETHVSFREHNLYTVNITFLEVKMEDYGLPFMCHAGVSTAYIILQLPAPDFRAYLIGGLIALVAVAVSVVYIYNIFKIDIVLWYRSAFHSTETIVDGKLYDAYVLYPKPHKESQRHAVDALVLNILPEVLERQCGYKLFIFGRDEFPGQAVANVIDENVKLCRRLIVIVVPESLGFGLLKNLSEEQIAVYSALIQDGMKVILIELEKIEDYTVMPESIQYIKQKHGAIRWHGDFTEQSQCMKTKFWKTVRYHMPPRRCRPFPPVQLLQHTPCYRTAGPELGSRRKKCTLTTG
Chain of human BAFF (ACROBiosystems, BAF-H52D4) (human) (Q9Y275 134-285 limits assumed): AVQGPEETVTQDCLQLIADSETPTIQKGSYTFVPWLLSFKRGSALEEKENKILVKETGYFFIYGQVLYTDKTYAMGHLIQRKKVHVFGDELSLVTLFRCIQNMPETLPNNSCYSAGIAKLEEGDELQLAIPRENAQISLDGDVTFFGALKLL

Usually EC50 stands for the concentration needed to bring the measured effect to its halfway point. A high value points to a less potent agent. As to “RCT-18, telitacicept (RC18, RemeGen) (Fc fusion)”, in assay [1], the EC50 came out at 21.5 nM. Take hIgG4 (antibody): the Maximum MFI in assay [2] came out at 76 MFI.

hIgG1 (antibody): the values for the Maximum MFI in assay [2] and in assay [3] were 77 MFI and 47 MFI, respectively.
